Assay results published in publication PMC4508901 (The Journal of Cell Biology, 2015).

Molecular target: the molecule itself
Assay: cross-linking

B1: purified Egd2 (expressed in E. coli) (natural protein, S. cerevisiae, UniProt P38879 1-174, looked up)
chain: MSAIPENANVTVLNKNEKKARELIGKLGLKQIPGIIRVTFRKKDNQIYAIEKPEVFRSAGGNYVVFGEAKVDNFTQKLAAAQQQAQASGIMPSNEDVATKSPEDIQADMQAAAEGSVNAAAEEDDEEGEVDAGDLNKDDIELVVQQTNVSKNQAIKALKAHNGDLVNAIMSLSK
stoichiometry N: 2
